According to publication PMC5626966, “Molecular and Physiological Logics of the Pyruvate-Induced Response of a Novel Transporter in Bacillus subtilis” (mBio, 2017):

How the values were obtained:
[1] = molecular target: T1, PftAB (YsbAB) pyruvate-facilitated transporter (Bacillus subtilis, UniProt P94515+P94516); assay: transport in growing cells, extracellular pyruvate by HPLC, fit of facilitated transport model; assay type: cell-based; details: B. subtilis cells, M9 minimal medium; model estimate of facilitated transport (Text S1, Table S2)
T1 construct: gene lrgA; full-length untagged pftAB in B. subtilis cells (WT, delta-pftAB, IPTG-inducible Phs-pftAB strains)
T1 sequence (P94515 whole entry): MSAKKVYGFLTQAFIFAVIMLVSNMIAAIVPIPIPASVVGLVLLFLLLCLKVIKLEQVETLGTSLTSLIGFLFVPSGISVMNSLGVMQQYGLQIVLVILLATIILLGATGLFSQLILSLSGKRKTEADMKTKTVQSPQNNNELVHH
T1 sequence (P94516 whole entry): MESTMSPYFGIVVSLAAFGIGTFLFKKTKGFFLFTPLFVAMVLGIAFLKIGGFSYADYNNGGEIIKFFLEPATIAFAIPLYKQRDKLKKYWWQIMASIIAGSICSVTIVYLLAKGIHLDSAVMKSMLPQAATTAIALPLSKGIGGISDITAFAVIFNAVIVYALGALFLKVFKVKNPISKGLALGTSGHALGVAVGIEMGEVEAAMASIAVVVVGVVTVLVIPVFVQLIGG

[2] = molecular target: T2, LytT (His6-LytT) (Bacillus subtilis (168?)) (UniProt P94514); assay: EMSA; details: EMSA: LytT with 50 ng DNA and 50 µg/ml poly(dI-dC); CcpA with 10 ng DNA and 400 µg/ml salmon sperm DNA; 6% or 8% native acrylamide gel in TAE; binding buffer …
T2 sequence: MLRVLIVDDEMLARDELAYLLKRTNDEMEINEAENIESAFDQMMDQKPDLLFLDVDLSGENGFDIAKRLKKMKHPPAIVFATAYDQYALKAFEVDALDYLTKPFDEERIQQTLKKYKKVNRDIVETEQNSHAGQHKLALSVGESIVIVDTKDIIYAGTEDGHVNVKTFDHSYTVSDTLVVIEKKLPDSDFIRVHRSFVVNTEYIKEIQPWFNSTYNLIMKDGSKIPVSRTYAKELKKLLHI

`CC(=O)C(=O)O` [pyruvate] was tested, and the “Km (apparent affinity constant)” value [1] was ~ 1.0 ± 0.1 mmol ⋅ liter^−1.

For “CCATGGTTTAATTCAACGTATAATCTGATCATGAAAGACGGATCGAAAATACCGGTCAGCCGGACATATGCGAAGGAATTGAAAAAGCTGCTCCATATTTGATGGGCGGCTTTTTGCATTTCAGCCATTTGATTCTGCAACTCAGACCCGCTATACGGCATGTTATCTTGTAAGCGCTTTATAACAGGGAATTCTTATTTATAATGAGGGTACCAAAGAGAAAGAGGTGAAGAAAATGAGTGCTAAAAAAGTGTACG (double strand) [PpftAB 257 bp]”, the binding [2] was “binds”.

With “CCATGGTTTAATTCAACGTATAATCTGATCATGAAAGACGGATCGAAAATACCGGTCAGCCGGACATATGCGAAGGAATTGAAAAAGCTGCTCCATATTTGATGGGCGGCTTTTTGCATTTCAGCCATTTGATTCTGCAACTCAGACCCGCTATACGGCATGTTATCTTGTAAGCGCTTTATAACAGGGAATTCTTATTTATAATGAGGGTACCAAAGAGAAAGAGGTGAAGAAAATGAGTGCTAAAAAAGTGTACG (double strand) [PpftAB reporter strain fragment 267 bp]” the binding [2] was “binds”.
